Measured values published in the supplement of paper PMC7877785.
± gives the uncertainty stated by the source.

Experiment: self-splicing fitness, log relative to wild type (ln ratio); higher = more splicing; Tetrahymena group I intron in knt gene, E. coli kanamycin selection, DiMSum; sequences stand for … in CUCUCU…GGAGGGAAAAGUUAUCAGGCAUGCACCUGGUAGCUAGUCUUUAAACCAAUAGAUUGCAUCGGUUUAAAAGGCAAGACCGUCAAAUUGCGGGAAAGGGGUCAACAGCCGUUCAGUACCAAGUCUCAGGGGAAACUUUGAGAUGGCCUUGCAAAGGGUAUGGUAAUAAGCUGACGGACAUGGUCCUAACCACGCAGCCAAGUCCUAAGUCAACAGAUCUUCUGUUGAUAUGGAUGCAGUUCACAGACUAAAUGUCGGUCGGGGAAGAUGUAUUCUUCUCAUAAGAUAUAGUCGGACCUCUCCUUAAUGGGAGCUAGCGGAUGAAGUGAUGCAACACUGGAGCCGCUGGGAACUAAUUUGUAUGCGAAAGUAUAUUGAUUAGUUUUGGAGUACUCGUGGUCG
Method in brief: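 DiMSum derived fitness as the error-weighted combination of fold changes across replicates, kanamycin versus no kanamycin, normalised to wild type. E. coli BL21(DE3) held the library, which randomised all eight P1ex-region intron nucleotides within the knt kanamycin-resistance gene on pET-22b(+). Six replicate transformations grew overnight at 37°C or 30°C on LB agar with or without 25 μg/mL kanamycin, also containing 100 μg/mL carbenicillin, 50 μM IPTG and 0.2% rhamnose, and pooled colonies were amplicon-sequenced on an Illumina HiSeq 2500.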

Sequence	self-splicing fitness (ln) (30 °C)	self-splicing fitness (ln) (37 °C)
ACCUAGCAAUAUUACGUUAU	-2.43 ± 0.11	-1.53 ± 0.11
ACGAAGCAAUAUUACGAACA	-1.62 ± 0.13	-0.229 ± 0.11
ACGAAGCAAUAUUACGAAGA	-3.07 ± 0.25	-3.2 ± 0.37
ACGAAGCAAUAUUACGAAUC	-3.29 ± 0.2	-2.9 ± 0.25
ACGAAGCAAUAUUACGACUA	-0.269 ± 0.083	-0.184 ± 0.081
ACGAAGCAAUAUUACGAGCA	-2.84 ± 0.14	-1.32 ± 0.12
ACGAAGCAAUAUUACGAUGG	-2.34 ± 0.13	-1.17 ± 0.12
ACGAAGCAAUAUUACGCAUU	-3.42 ± 0.12	-1.95 ± 0.096
ACGAAGCAAUAUUACGCCCG	-0.0902 ± 0.13	-0.0289 ± 0.14
ACGAAGCAAUAUUACGCGAG	-1.48 ± 0.12	-0.723 ± 0.11
ACGAAGCAAUAUUACGCGGC	-2.63 ± 0.35	-2.22 ± 0.24
ACGAAGCAAUAUUACGCGUC	-3.76 ± 0.21	-1.91 ± 0.19
ACGAAGCAAUAUUACGCUCU	-1.35 ± 0.094	-0.15 ± 0.1
ACGAAGCAAUAUUACGGACA	-0.643 ± 0.14	-0.915 ± 0.15
ACGAAGCAAUAUUACGGACU	0.0455 ± 0.045	0.53 ± 0.065
ACGAAGCAAUAUUACGGAUG	-2.82 ± 0.13	-1.44 ± 0.11
ACGAAGCAAUAUUACGGCAA	-1.04 ± 0.13	-0.678 ± 0.13
ACGAAGCAAUAUUACGGGAC	-4.36 ± 0.24	-2.68 ± 0.18
ACGAAGCAAUAUUACGGUGC	-4.82 ± 0.27	-3.17 ± 0.2
ACGAAGCAAUAUUACGGUUG	-2.29 ± 0.07	-1.31 ± 0.081
ACGAAGCAAUAUUACGUACA	-2.13 ± 0.13	-1.06 ± 0.12
ACGAAGCAAUAUUACGUCUC	-3.62 ± 0.12	-1.55 ± 0.087
ACGAAGCAAUAUUACGUGAG	-0.888 ± 0.056	-1.14 ± 0.087
ACGAAGCAAUAUUACGUGGC	-2.97 ± 0.11	-2.04 ± 0.14

Sequence	self-splicing fitness (ln) (30 °C)	self-splicing fitness (ln) (37 °C)
ACGAAGCAAUAUUACGUUUU	-4.13 ± 0.16	-1.8 ± 0.11
ACGCAGCAAUAUUACGAAGA		-1.43 ± 0.26
ACGCAGCAAUAUUACGCCUA	-0.946 ± 0.088	0.0129 ± 0.093
ACGCAGCAAUAUUACGCUCG	-2.56 ± 0.12	-1.67 ± 0.16
ACGCAGCAAUAUUACGGACA	-1.29 ± 0.13	-1.13 ± 0.14
ACGCAGCAAUAUUACGGAGA	-2.66 ± 0.3	-2.41 ± 0.2
ACGCAGCAAUAUUACGGCCU	0.271 ± 0.063	0.881 ± 0.091
ACGCAGCAAUAUUACGGCUG	-3.03 ± 0.16	-3.01 ± 0.22
ACGCAGCAAUAUUACGGUAC	-1.03 ± 0.18	-2.48 ± 0.45
ACGCAGCAAUAUUACGGUUC	-3.63 ± 0.22	-1.89 ± 0.15
ACGCAGCAAUAUUACGUACC	-1.46 ± 0.24	-0.295 ± 0.26
ACGCAGCAAUAUUACGUACG	-2.93 ± 0.15	-0.983 ± 0.13
ACGCAGCAAUAUUACGUCCU	-0.15 ± 0.058	0.354 ± 0.07
ACGCAGCAAUAUUACGUCGG	-1.23 ± 0.067	-1.14 ± 0.1
ACGCAGCAAUAUUACGUCUU	-1.36 ± 0.065	-1.27 ± 0.083
ACGCAGCAAUAUUACGUGAC	-3.45 ± 0.25	-2.3 ± 0.21
ACGCAGCAAUAUUACGUGCG	-3.58 ± 0.13	-2.85 ± 0.15
ACGCAGCAAUAUUACGUUUA	-2.58 ± 0.12	-1.42 ± 0.095
ACGGAGCAAUAUUACGAAGC	-4.24 ± 0.39	-2.4 ± 0.18
ACGGAGCAAUAUUACGAUAA	-3.89 ± 0.23	-2.72 ± 0.21
ACGGAGCAAUAUUACGAUCG	-0.961 ± 0.088	-1.14 ± 0.14
ACGGAGCAAUAUUACGAUUG	-3.04 ± 0.25	-1.43 ± 0.22
ACGGAGCAAUAUUACGCCCG		0.0539 ± 0.32
ACGGAGCAAUAUUACGCGAG	-2.86 ± 0.13	-1.35 ± 0.13
